Source: publication PMC7305319, “Talin dissociates from RIAM and associates to vinculin sequentially in response to the actomyosin force” (Nature Communications, 2020)
Where two headings read alike, the source gives them in different places.

Assays:
RIAM (Homo sapiens) [1] = molecular target: RIAM (Homo sapiens) (UniProt Q7Z5R6); settings: cited from earlier work
Talin R1-R2-R3 = Talin R1-R2-R3 (UniProt Q9Y490); settings: cited from earlier work
RIAM (Homo sapiens) [2] = molecular target: RIAM (Homo sapiens) (UniProt Q7Z5R6); settings: cited from earlier work; remark: listed apart in the source
[3] = molecular target: T1, talin R1–R2–R3 (F2–F3–R1–R2–R3–R13) (human)
T1 chain: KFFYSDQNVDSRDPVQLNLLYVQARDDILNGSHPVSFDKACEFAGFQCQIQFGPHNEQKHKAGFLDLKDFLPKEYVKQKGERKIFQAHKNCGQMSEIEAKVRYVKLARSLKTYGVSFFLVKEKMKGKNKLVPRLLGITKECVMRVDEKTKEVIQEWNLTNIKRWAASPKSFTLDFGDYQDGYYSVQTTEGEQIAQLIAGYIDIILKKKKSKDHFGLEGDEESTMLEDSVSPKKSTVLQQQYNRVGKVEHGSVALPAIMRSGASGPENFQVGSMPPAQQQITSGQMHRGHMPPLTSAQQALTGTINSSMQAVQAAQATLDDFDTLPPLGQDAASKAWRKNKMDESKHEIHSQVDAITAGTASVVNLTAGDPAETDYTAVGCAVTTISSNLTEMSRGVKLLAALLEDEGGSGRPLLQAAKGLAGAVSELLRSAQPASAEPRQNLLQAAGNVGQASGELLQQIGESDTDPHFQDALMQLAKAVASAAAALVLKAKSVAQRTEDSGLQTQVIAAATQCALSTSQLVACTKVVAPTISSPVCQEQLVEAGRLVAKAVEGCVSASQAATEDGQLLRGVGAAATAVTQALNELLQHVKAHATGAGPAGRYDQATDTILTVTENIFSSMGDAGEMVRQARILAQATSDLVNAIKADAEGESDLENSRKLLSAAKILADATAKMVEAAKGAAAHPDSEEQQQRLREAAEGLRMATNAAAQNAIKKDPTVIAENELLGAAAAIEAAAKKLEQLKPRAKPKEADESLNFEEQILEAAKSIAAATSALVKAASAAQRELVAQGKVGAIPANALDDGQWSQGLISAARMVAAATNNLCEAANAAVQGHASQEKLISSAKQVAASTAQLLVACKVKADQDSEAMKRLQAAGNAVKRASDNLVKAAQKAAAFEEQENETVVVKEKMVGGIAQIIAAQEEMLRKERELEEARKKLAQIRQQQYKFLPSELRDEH

[4] = molecular target: T2, talin R11 (F2–F3–R11–R13) (human)
T2 chain: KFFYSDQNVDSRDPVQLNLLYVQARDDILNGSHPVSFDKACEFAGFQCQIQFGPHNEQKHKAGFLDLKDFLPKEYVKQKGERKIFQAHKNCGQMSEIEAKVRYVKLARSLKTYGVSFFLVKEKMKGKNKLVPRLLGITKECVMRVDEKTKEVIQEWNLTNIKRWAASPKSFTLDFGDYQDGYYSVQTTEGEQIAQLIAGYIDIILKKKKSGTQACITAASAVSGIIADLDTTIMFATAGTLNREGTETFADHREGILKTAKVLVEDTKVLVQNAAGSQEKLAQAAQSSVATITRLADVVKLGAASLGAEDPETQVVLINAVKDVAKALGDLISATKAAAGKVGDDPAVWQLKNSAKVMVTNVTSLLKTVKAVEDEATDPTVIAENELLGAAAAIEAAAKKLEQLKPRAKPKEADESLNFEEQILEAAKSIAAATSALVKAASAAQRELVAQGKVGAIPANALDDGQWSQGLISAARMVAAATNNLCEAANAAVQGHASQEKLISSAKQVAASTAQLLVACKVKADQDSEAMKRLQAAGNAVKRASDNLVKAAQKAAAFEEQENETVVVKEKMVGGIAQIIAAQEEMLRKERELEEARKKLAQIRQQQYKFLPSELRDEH

[5] = molecular target: T3, talin R7–R8 (F2–F3–R7–R8–R13) (human)
T3 chain: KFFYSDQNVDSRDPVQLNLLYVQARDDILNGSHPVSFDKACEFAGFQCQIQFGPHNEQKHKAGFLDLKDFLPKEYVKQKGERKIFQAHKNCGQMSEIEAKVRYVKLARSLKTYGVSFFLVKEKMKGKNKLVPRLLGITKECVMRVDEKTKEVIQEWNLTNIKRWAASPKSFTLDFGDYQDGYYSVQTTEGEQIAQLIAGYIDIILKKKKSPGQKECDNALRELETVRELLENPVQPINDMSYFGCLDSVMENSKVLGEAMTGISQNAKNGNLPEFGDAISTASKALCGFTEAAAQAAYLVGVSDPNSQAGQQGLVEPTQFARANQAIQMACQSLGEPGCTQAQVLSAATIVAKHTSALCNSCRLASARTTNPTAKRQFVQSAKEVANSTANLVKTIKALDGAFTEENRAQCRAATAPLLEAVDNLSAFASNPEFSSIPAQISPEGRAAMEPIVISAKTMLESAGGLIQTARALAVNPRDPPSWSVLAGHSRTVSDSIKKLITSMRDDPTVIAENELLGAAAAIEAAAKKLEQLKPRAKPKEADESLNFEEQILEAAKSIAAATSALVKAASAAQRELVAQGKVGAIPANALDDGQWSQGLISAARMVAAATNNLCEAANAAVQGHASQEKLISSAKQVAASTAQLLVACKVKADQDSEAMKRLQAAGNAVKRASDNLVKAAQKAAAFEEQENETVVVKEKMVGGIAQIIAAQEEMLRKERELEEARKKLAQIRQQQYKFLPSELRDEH

[6] = molecular target: T1, talin R1–R2–R3 (F2–F3–R1–R2–R3–R13); assay: fluorescence microscopy of protein-coated micropatterns; talin construct (1 µM during coating) on disk micropatterns, 100 nM mCherry-RIAM 1-306 in solution, with actomyosin (2.4 µM actin, 50 nM myosin II) applying force to talin
[7] = molecular target: T1, talin R1–R2–R3 (F2–F3–R1–R2–R3–R13); assay: fluorescence microscopy of protein-coated micropatterns; talin construct (1 µM during coating) on 5 µm disk micropatterns, 0–1 µM mCherry-RIAM 1-306 in solution, no actomyosin; Kd estimated as the RIAM concentration at half saturation
[8] = molecular target: T4, talin F2–F3–R1–R2–R3 (talin 196–911) (human, UniProt Q9Y490 196-911); assay: as above; settings: both partners purified
T4 construct: human talin-1, F2–F3–R1–R2–R3, residues 196–911; The methods tell of GST cleavage only for mCherry-RIAM 1-306 and EGFP-Vh, so GST was probably kept on this construct; also called the same construct fused to R1–R2–R3; source: E. coli BL21 DE3, purified (glutathione-Sepharose, Ni-NTA)

RIAM (Homo sapiens), sequence (Q7Z5R6 whole entry): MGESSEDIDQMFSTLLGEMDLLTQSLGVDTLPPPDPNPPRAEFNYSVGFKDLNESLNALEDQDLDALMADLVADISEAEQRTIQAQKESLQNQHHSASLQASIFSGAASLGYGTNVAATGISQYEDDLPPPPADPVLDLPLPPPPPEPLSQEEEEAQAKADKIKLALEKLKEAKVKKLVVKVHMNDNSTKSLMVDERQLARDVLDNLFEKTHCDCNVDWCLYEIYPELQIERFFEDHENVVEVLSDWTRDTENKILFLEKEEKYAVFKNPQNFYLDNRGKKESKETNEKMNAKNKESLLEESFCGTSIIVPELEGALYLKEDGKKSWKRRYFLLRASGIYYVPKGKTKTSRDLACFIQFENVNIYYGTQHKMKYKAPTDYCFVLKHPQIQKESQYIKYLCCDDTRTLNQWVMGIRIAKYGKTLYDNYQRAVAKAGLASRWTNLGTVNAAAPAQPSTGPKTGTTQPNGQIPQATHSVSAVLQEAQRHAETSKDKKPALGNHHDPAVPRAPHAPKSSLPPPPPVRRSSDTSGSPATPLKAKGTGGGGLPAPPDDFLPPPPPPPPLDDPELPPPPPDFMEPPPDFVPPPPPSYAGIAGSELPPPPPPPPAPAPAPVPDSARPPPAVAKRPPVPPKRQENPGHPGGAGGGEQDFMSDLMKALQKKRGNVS

**Q.** What does the source list for Vinculin Vh (from UniProt P18206)?
**A.** Kd (RIAM (Homo sapiens) [1]): 5000 nM; Kd (Talin R1-R2-R3): 140 nM

**Q.** For Talin F3 (from UniProt P26039), which Kd (RIAM (Homo sapiens) [2]) is on record?
**A.** 32000 nM

B1: mCherry-RIAM 1-306 (domain or fragment, mouse, UniProt Q8R5A3 1-306, looked up)
chain: MGESNEDIDQMFSTLLGEMDLLTQSLGVDTLPPPDPNPPREEFNYTVGFKDLNESLNALEDQDLDALMADLVADISEAEQRTIQAQKESSQNQDRFALLRASDGQGTASGGYGASAAAIDVSHHEEALPPPPVEPMLDLLPPPPPPPPPELLSKEEEEAKAKADKIKLALEKLKEAKVKKLVVKVHMDDSSTKSLMVDERQLARDVLDNLFEKTHCDCNVDWCLYEIYPELQIERVFEDHENVVEVLSDWTRDTENKVLFLEKEERYAVFKNPQNFYLDNKGKKENKETNEKMNAKNKEYLLEESF
notes: Cloned in a homemade pGEX-6P2-mCherry plasmid; source: E. coli BL21 DE3, purified (glutathione-Sepharose, PreScission cleavage, Ni-NTA); not shown: GST, N-terminal, cleaved
**Q.** Which Kd [3] does the source give for B1 here?
**A.** 134 nM

**Q.** What about the Kd [4] of the same molecule?
**A.** 36 nM

**Q.** What about the Kd [5] of the same molecule?
**A.** 38 nM

**Q.** What about the percent of RIAM dissociated from talin at the end of the kinetics with actomyosin [6] of the same molecule?
**A.** 50%

**Q.** And the Kd [7]?
**A.** 36 nM

**Q.** Does B1 bind [8]?
**A.** binds
